Laboratory results published in the DeepSol protein solubility set.

Test: soluble on expression in E. coli; label from the status in PepcDB or PDB records

Sequence	soluble on expression in E. coli
MGSDKIHHHHHHMQLIFFRGMKELLSTMDLDTDANTIPELKERAHMLCARFLGGAWKTVPLEHLRISRIKGGMSNMLFLCRLSEVYPPIRNEPNKVLLRVYFNPETESHLVAESVIFTLLSERHLGPKLYGIFSGGRLEEYIPSRPLSCHEISLAHMSTKIAKRVAKVHQLEVPIWKEPDYLCEALQRWLKQLTGTVDAEHRFDLPEECGVSSVNCLDLARELEFLRAHISLSKSPVTFCHNDLQEGNILLPKASSGNIRMPSLSDETQALGNSLSAFNPADPRLVLIDFEYASYNYRAFDFANHFIEWTIDYDIDEAPFYKIQTENFPENDQMLEFFLNYLREQGNTRENELYKKSEDLVQETLPFVPVSHFFWGLRERSSVAVLQT	not soluble
MSLGTFRFGTSATPEGKTLLVDSKGLILDGKHIIPVMGEIHYSRVPESEWRREIRKMKAGGINIISTYIFWIHHEPEEGKWNWSGNHNLRRFVRICAEENVMLVLRLGPFCHGEVYQGGIPSWVHEKAGQNPKYKIRARTPGFLEDCTELYNTIFAQVNGLLWKDGGPVVGVQIENESRGPWDYLEALKNIAVKAGFDVPFYTRTGWPALRGKEVFGQLLPLYGDYADGFWDRKLEDMPGSYADAFIMRDKRMSSAIATETFSKEELSEDSPSLSSKLSYPYFTCELGGGMMPAYHRRININGKELKPLVICKLGSGSNLPGYYMYHGGTNPYNPLHTMGETQSSPGTNHNDLPHMTYDFQAPLGEVGQVFETPFHEGRFIHQMLTDWGSELLQMNVDSLSRHYARRGAFEFYNDYVRIKNESGTSHVTFKDYRTEGATIDWTTVEPFCKVDGLIYFIEIRGKKPQISVDGKVYTCKLNKQQKAGKLNVCVLSYEKAKTAYKIDGKLLYAKNGGILYKSDSCIVEEVWTKSPVIAATVTEVKKADAPRVVPMGRQAVAAQPVEEDFAKAAVYTINYDTSGINNYDNLFLRINYRGDVARVYADGRLVADNFWNGKEMWVRMADLVGKKVELKILPLRKDAPVYFQKEQKAMIEATKGDYMLGLDSVEVIERHTLEFNDTEGHHHHHH	soluble
MGSDKIHHHHHHMDDEIKKAITNYDDRPAMTKSTQKVFKNQQEMRTVLRDEVEVWQLIHQTDKQAEANIKPKLPPLAGARIMFRHFDFCLFSHDESERMAAYLPNDGIYTQNYRYLKRLIALMYPSYNLRQALDVIYHLEMMAPVRALTIDRYLVPVNNGIWNLHQHQLIPFSPKYVFTTKIATNYRDNATTPNIKGWTIDNWFDELACGDDEIVELLWEVINDCLNGNYTRKKAIFLFSELGNSGKGTFQELITNLVGMDNVGTLKVNEFDVRFRLAGLVGKTVCIGDDIAPDIYIKDSSNFNSVVTGDLVNIEFKGQDGYTSALRCTIVQSCNGLPNFHNKGGTMRRLVIVPFNNHFQGKGDNWSIRNDYITRKDVLEYVLYKALQLDFDKFSVPEVSKKALADFELDNNPLIGFKVSFFDKLKVDKVPTYYLYEYYKKYCSINGLKALGQSKFIRRFMTCVPLYEKKQAKLSATDINTLDVFKQQDEIIAWPREPLAGKKYNCIVQSTL	not soluble
SNDFNWTSVFNLSHNRNKIVSLNGLLDQTIEGTWFIHKVGLPYHTFYVKEFAGVDPLTGSAQYYLNTKNEDGSYNRELTTDAAKAESIPYKTATPKVSGGFTNILNYKWIDLTFTLTYSLGGYSFDKLGTYIENGSSSIYSSRYNLPAYMMNRWQKPGDQTDIPRFVYGEPATSTNSSRYIHSTDHLRLKNFTLGFTLPNQWTQKLMIDKVRVYFSGNNLLTWAKWKQYDPETPVNGEVFCEAPAMRTFSFGAQLSF	not soluble
KKISQYACQRRTTLNNYNQLFTDALDILAENDELRENEGSCLAFMRASSVLKSLPFPITSMKDTEGIPCLGDKVKSIIEGIIEDGESSEAKAVLNDERYKSFKLFTSVFGVGLKTAEKWFRMGFRTLSKIQSDKSLRFTQMQKAGFLYYEDLVSCVNRPEAEAVSMLVKEAVVTFLPDALVTMTGGFRRGKMTGHDVDFLITSPEATEDEEQQLLHKVTDFWKQQGLLLYCDILESTFEKFKQPSRKVDALDHFQKCFLILKLDHGRVHSEKSGQQEGKGWKAIRVDLVMCPYDRRAFALLGWTGSRQFERDLRRYATHERKMMLDNHALYDRTKRVFLEAESEEEIFAHLGLDYIEPWERNA	soluble
SEAQQKNYTFRCLQMSSFANRSWSRTDSVVWLGDLQTHRWSNDSATISFTKPWSQGKLSNQQWEKLQHMFQVYRVSFTRDIQELVKMMSPKEDYPIEIQLSAGCEMYPGNASESFLHVAFQGKYVVRFWGTSWQTVPGAPSWLDLPIKVLNADQGTSATVQMLLNDTCPLFVRGLLEAGKSDLEKQEKPVAWLSSVPSSAHGHRQLVCHVSGFYPKPVWVMWMRGDQEQQGTHRGDFLPNADETWYLQATLDVEAGEEAGLACRVKHSSLGGQDIILYWGSLHHILDAQKMVWNHRHHHHHH	soluble
MASISTPFPISLHPKTVRSKPLKFRVLTRPIKASGSETPDLTVATRTGSKDLPIRNIPGNYGLPIVGPIKDRWDYFYDQGAEEFFKSRIRKYNSTVYRVNMPPGAFIAENPQVVALLDGKSFPVLFDVDKVEKKDLFTGTYMPSTELTGGYRILSYLDPSEPKHEKLKNLLFFLLKSSRNRIFPEFQATYSELFDSLEKELSLKGKADFGGSSDGTAFNFLARAFYGTNPADTKLKADAPGLITKWVLFNLHPLLSIGLPRVIEEPLIHTFSLPPALVKSDYQRLYEFFLESAGEILVEADKLGISREEATHNLLFATCFNTWGGMKILFPNMVKRIGRAGHQVHNRLAEEIRSVIKSNGGELTMGAIEKMELTKSVVYECLRFEPPVTAQYGRAKKDLVIESHDAAFKVKAGEMLYGYQPLATRDPKIFDRADEFVPERFVGEEGEKLLRHVLWSNGPETETPTVGNKQCAGKDFVVLVARLFVIEIFRRYDSFDIEVGTSPLGSSVNFSSLRKASF	soluble
MLVFISNSRLSESEVQKLRDKHLIDDFIQRENKGYDFAAWHDGMEFVGFENLKQYDSVTVMNDTCFGPLWDMAPIYDNYESNPNVDFWGMTNHQGIKAGDIYIHEHLQSYFISFKKRLVESSVFQKFWKSVESFEDVQKVIDNYETLYTKKFRDAGFNYESILNTIPLNDKFFHSNFTIHYPHVLLDTGVPFIKVKTFDLTQHLAPYLLKEIEKRTDYPVELILSHMSDMSLPTPPYLLDRKVIEKSSQTYSDTKKIAVHLHTYYVDLLEDFLKQFENFHFTYDLFLTTDSEDKKAEIQSILDKNGKVARIFITGNRGRDVIPMLKLKDELSAYDYIGHFHTKKSPEYPYWVGDSWRNELFSMLIQPADNIIANLERDDRLGLVIADIPSFFRYTKIVDPWNENRFAEGMNDLWERMDLGRDIDFDKMNTFIMSYGTFIWFKYDALKPLFDLDLQDEEIPAEPIPQHTILHSIERILVYLAWARRYDYAIAKNDIYITPFVDNVVLNIRPDTLPNTYINFDNIGGIKGALKYIIVGPGTAVKYIFRRIKRKFKSLEHHHHHH	soluble
MSLGAYLSSPKTNKESLDGGNLELDPSRYGLSCMQGWRKNMEDAHICYNNLKFNEIEEDVSIYGVFDGHGGPNVSKWISYNFRRIFIRCLKEANAGETGEDDCNGVYSSEELRLFENYYSNDYEDNIAYSCGSTALVAVILKGYLIVANAGDSRAIVCFNGNSLGMSTDHKPHLQTEEARIKKAGGYIANGRVDGNLNLTRAIGDLHYKRDPFLPQKDQKISAFPEITCVTLTPEDEFLFLACDGIWDCKDGQDVVGFVKTRLEKFEEIPDDPNNSLDNTENSEHMNTNNNSDQNEKLKSEEGHHHHHH	soluble
MKLIKTIDAVGQVLCHDITQIIPGEFKGRKFKKGHIVKEEDIPVLLSLGKDNLYVWEKSEGMVHENEGALFLKELTAGENLDFSEIKEGKIDFIAACDGLLKIDVDALFDLNCVGEIMMATLHNNFIVNKGLKVAGTRVIPLVIDEKKLEDAKKVVGNRKIVNVVPFKPKKVGIVTTGNEVFYSRIVDKFGPVIEEKVKGFGCEVIGQTICPDDKEIIKSAIKEFISQGAELICCTGGMSVDPDDVTPTAIKETGADLVTYGSPILPGAMFLLAYYGEVPIMGIPGCAMYHKTTVFDIVLSRVLIDEKLDKYDIARYGHGGLCMNCDVCTYPACNFAKI	soluble
DVQLQQSGPGLVAPSQSLSITCTVSGFSLTDYGVNWVRQSPGKGLEWLGVIWGDGITDYNSALKSRLSVTKDNSKSQVFLKMNSLQSGDSARYYCVTGLFDYWGQGTTLTVSSASGADHHHHHH	soluble
MAQDWNDKIESAQKMLPLIAQLHNNNNVVVSVFGRLLINVTDIDIVKAHRYSRLATETELSPADTLPVLEALHSINVGPASIDLGRLVELHRSKGGDLTQFLTEELSNVIDTRPA	not soluble
